Laboratory results reported in patent US20260201033A1 (LTZ THERAPEUTICS, published 2026).

Experiments:
[1] = target: T1, human EGFR (ACROBiosystems, Cat #: EGR-H5222) (human, UniProt P00533 25-645); assay: ELISA, plate coated with human EGFR
T1 construct: Bought protein; also called recombinant human EGFR protein

[2] = target: T2, CD79b on Ramos cells and on endogenous B cells of human PBMCs (human, UniProt P40259 29-229); assay: cell-based or functional assay
T2 sequence (looked up): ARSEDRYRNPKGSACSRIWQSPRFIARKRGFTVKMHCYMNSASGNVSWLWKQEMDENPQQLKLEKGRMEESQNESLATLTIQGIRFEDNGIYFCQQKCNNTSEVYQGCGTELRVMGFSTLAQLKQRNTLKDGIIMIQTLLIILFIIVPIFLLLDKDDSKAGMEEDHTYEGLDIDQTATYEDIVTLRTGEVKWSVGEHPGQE

[3] = target: T2, CD79b on Ramos cells and on endogenous …; assay: cell-based or functional assay; remark: listed apart in the source
[4] = target: T2, CD79b on Ramos cells and on endogenous …; assay: cell-based or functional assay; remark: listed apart in the source
[5] = target: T2, CD79b on Ramos cells and on endogenous …; assay: flow cytometry on Ramos cells (CD79b+), anti-human IgG PE, MFI (PE)
[6] = target: T2, CD79b on Ramos cells and on endogenous …; assay: cell-based or functional assay; remark: listed apart in the source
[7] = target: T2, CD79b on Ramos cells and on endogenous …; assay: cell-based or functional assay; remark: listed apart in the source
[8] = target: T2, CD79b on Ramos cells and on endogenous …; assay: cell-based or functional assay; remark: listed apart in the source
[9] = target: T3, Human C-type lectin domain family 5 member A (CLEC5A), endogenous on human monocytes and M0 macrophages (human, UniProt Q9NY25 1-188); assay: flow cytometry on human M0 macrophages, anti-human IgG PE
T3 construct: Endogenous CLEC5A on primary human monocytes and monocyte-derived M0 macrophages; also called MDL-1; M0 macrophages (CLEC5A+) cells
T3 sequence: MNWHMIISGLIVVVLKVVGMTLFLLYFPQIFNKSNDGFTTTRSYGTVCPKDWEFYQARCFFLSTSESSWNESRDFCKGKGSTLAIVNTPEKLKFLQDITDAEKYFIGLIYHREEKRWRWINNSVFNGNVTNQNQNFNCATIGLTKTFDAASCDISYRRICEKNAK

[10] = target: T4, HER2 on SK-BR-3 cells (UniProt P04626 23-1255, limits assumed); assay: cell-based or functional assay
[11] = target: T5, EpCAM on DLD-1 cells (human, UniProt P16422 24-314); assay: flow cytometry on DLD-1 cells (EPCAM+), anti-human IgG PE
T5 construct: whole, on cells; also called DLD-1 cells (EPCAM+); hEpCAM
T5 sequence (looked up): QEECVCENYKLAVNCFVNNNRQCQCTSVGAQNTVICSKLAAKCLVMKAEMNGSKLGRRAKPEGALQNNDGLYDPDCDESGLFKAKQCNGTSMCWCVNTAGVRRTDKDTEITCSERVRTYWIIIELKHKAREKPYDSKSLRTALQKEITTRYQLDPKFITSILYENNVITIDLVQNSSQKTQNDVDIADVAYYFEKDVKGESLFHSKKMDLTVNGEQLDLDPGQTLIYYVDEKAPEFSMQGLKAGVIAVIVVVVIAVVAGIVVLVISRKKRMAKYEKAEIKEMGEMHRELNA

[12] = target: T5, EpCAM on DLD-1 cells; assay: cell-based or functional assay
[13] = target: T4, HER2 on SK-BR-3 cells; assay: cell-based or functional assay; remark: listed apart in the source

B1: Necitumumab (antibody, V domains shown)
VH: QVQLQESGPGLVKPSQTLSLTCTVSGGSISSGDYYWSWIRQPPGKGLEWIGYIYYSGSTDYNPSLKSRVTMSVDTSKNQFSLKVNSVTAADTAVYYCARVSIFGVGTFDYWGQGTLVTVSS
VL: EIVMTQSPATLSLSPGERATLSCRASQSVSSYLAWYQQKPGQAPRLLIYDASNRATGIPARFSGSGSGTDFTLTISSLEPEDFAVYYCHQYGSTPLTFGGGTKAEIK
Work on B1 yielded an EC50 [1] of 0.022 µg/mL.

B2: CD79b/5C7 (2+2 B) Fc-optimized (bispecific antibody, human IgG1, kappa)
heavy: EQQLVETGGGLIQPGGSLRLSCAASGFTINIDYWISWVRQAPGKGLEWIGIIDPGDGTTYFAIWVSGRFTISFDNSKNTVYLQMNSLRAEDTAVYFCVREFSASAYQYDLWGPGTLVTVSSASTKGPSVFPLAPSSKSTSGGTAALGCLVKDYFPEPVTVSWNSGALTSGVHTFPAVLQSSGLYSLSSVVTVPSSSLGTQTYICNVNHKPSNTKVDKKVEPKSCDKTHTCPPCPAPELLAGPSVFLFPPKPKDTLMISRTPEVTCVVVDVSHEDPEVKFNWYVDGVEVHNAKTKPREEQYNSTYRVVSVLTVLHQDWLNGKEYKCKVSNKALPLPEEKTISKAKGQPREPQVYTLPPSRDELTKNQVSLTCLVKGFYPSDIAVEWESNGQPENNYKTTPPVLDSDGSFFLYSKLTVDKSRWQQGNVFSCSVMHEALHNHYTQKSLSLSPGGGGGSGGGGSGGGGSDIQMTQSPSSLSASVGDRVTITCQASESVDRNNRLAWFQQKPGKPPKLLIYTTSTLASGVPSRFSGSGSGTDFTLTISSLQPEDVATYYCAGYRGAHTDGDAFGCGTKVEIKGGGGSGGGGSGGGGSGGGGSEQQLVESGGGLVKPGGSLRLSCAASGFSFSRSSYMCWVRQAPGKCLEWIGCLSVGDGHTYYASWAKGRFTISKDSAKNSVYLQMNSLRAEDTAVYFCARAPSYSGDGGHGYDLWGPGTLVTVSS
light: ELVMTQSPATLSVSPGERATLSCRASEDIENYLAWYQQKPGQPPRLLIYRASTLSSGVPARFSGSGSGTEFTLTISSLQSEDFAVYYCQQGYRNSNVDNPFGGGTKVEIKRTVAAPSVFIFPPSDEQLKSGTASVVCLLNNFYPREAKVQWKVDNALQSGNSQESVTEQDSKDSTYSLSSTLTLSKADYEKHKVYACEVTHQGLSSPVTKSFNRGEC
B2 was tested, and the “IC50 (nM), Ramos cell killing by M2 macrophages, Donor 022” value [2] was 0.006 nM, the “IC50 (nM), Ramos cell killing by M2 macrophages, Donor 431” value [2] was 0.001 nM and the “IC50 (nM), killing of endogenous B cells by PBMCs, Donor 234” value [3] was 0.0156 nM. The “IC50 (nM), Ramos cell killing by M1 macrophages, Donor 431” value [4] was 0.002 nM, the “EC50 (read off the curve)” value [5] was roughly 1000 pM and the “IC50 (nM), Ramos cell killing by M0 macrophages, Donor 022” value [6] was 0.012 nM. The “IC50 (nM), Ramos cell killing by M0 macrophages, Donor 159” value [6] was 0.001 nM, the “IC50 (nM), Ramos cell killing by M0 macrophages, Donor 161” value [6] was 0.001 nM and the “IC50 (nM), Ramos cell killing by M0 macrophages, Donor 431” value [6] was 0.002 nM. The “IC50 (nM), Ramos cell killing by PBMCs (test 3), Donor 281” value [7] was 0.28 nM, the “IC50 (nM), Ramos cell killing by PBMCs (test 3), Donor 367” value [7] was 0.0295 nM and the “IC50 (nM), Ramos cell killing by PBMCs (test 2), Donor 234” value [8] was 0.0298 nM. The “IC50 (nM), Ramos cell killing by PBMCs (test 2), Donor 431” value [8] was 0.0168 nM.

B3: HER2/3A7 (1+1 A) Fc-silenced (bispecific antibody, human IgG1, kappa, L234A L235A)
heavy 1: not shown
heavy 2: not shown
light 1: not shown
light 2: AVVMTQTPASVEAAVGGTVTINCQASQRINNYLSWFQQKPGQPPKLLIYGAATLASGVPSRFKGSGSGTEYTLTISDLEPADAATYYCQCTYGIPSSNYGFGGGTEVVVKSSASTKGPSVFPLAPSSKSTSGGTAALGCLVKDYFPEPVTVSWNSGALTSGVHTFPAVLQSSGLYSLSSVVTVPSSSLGTQTYICNVNHKPSNTKVDKKVEPKSC
notes: also called HER2/3A7 (1+1 A) Fc-LALAPG
For B3, the EC50 [9] was 611 pM and the “IC50 (nM), SK-BR-3 cell killing by M0 macrophages (E:T 5:1)” value [10] was 0.114 nM.

B4: anti-EpCAM antibody (Solitomab EpCAM binding part IgG form) (antibody, V domains shown)
VH: QVQLQQSGAELVRPGTSVKVSCKASGYAFTNYLIEWVKQRPGQGLEWIGVINPGSGGTNYNEKFKGKATLTADKSSSTAYMQLSSLTSDDSAVYFCARDGPWFAYWGQGTLVTVSA
VL: NIVMTQSPKSMSMSVGERVTLTCKASENVVTYVSWYQQKPEQSPKLLIYGASNRYTGVPDRFTGSGSATDFTLTISSVQAEDLADYHCGQGYSYPYTFGGGTKLEIK
notes: IgG form
For B4, the EC50 [11] was 670 pM and the “IC50 (nM), DLD-1 cell killing by M0 macrophages” value [12] was 0.0812 nM.

B5: HER2/5C7 (1+1 A) Fc-silenced (bispecific antibody, human IgG1, kappa, L234A L235A)
heavy 1: not shown
heavy 2: not shown
light 1: not shown
light 2: AIVMTQTPSSKSVPVGDTVTINCQASESVDRNNRLAWFQQKPGQPPKLLIYTTSTLASGVPSRFKGSGSGTHFTLTISDVVPDDAATYYCAGYRGAHTDGDAFGGGTEVVVKSSASTKGPSVFPLAPSSKSTSGGTAALGCLVKDYFPEPVTVSWNSGALTSGVHTFPAVLQSSGLYSLSSVVTVPSSSLGTQTYICNVNHKPSNTKVDKKVEPKSC
notes: also called HER2/5C7 (1+1 A) Fc-LALAPG
B5 was tested, and the EC50 [9] was 1490 pM, the “IC50 (nM), SK-BR-3 cell killing by M0 macrophages in the presence of hIgG1” value [13] was 0.00632 nM and the “IC50 (nM), SK-BR-3 cell killing by M0 macrophages in the presence of media” value [13] was 0.0481 nM. The “IC50 (nM), SK-BR-3 cell killing by M0 macrophages in the presence of plasma” value [13] was 0.433 nM and the “IC50 (nM), SK-BR-3 cell killing by M0 macrophages (E:T 5:1)” value [10] was 0.148 nM.

B6: CD79b/5C7 (2+2 A) Fc-optimized (bispecific antibody, human IgG1, kappa)
heavy: EQQLVETGGGLIQPGGSLRLSCAASGFTINIDYWISWVRQAPGKGLEWIGIIDPGDGTTYFAIWVSGRFTISFDNSKNTVYLQMNSLRAEDTAVYFCVREFSASAYQYDLWGPGTLVTVSSASTKGPSVFPLAPSSKSTSGGTAALGCLVKDYFPEPVTVSWNSGALTSGVHTFPAVLQSSGLYSLSSVVTVPSSSLGTQTYICNVNHKPSNTKVDKKVEPKSCDKTHTCPPCPAPELLAGPSVFLFPPKPKDTLMISRTPEVTCVVVDVSHEDPEVKFNWYVDGVEVHNAKTKPREEQYNSTYRVVSVLTVLHQDWLNGKEYKCKVSNKALPLPEEKTISKAKGQPREPQVYTLPPSRDELTKNQVSLTCLVKGFYPSDIAVEWESNGQPENNYKTTPPVLDSDGSFFLYSKLTVDKSRWQQGNVFSCSVMHEALHNHYTQKSLSLSPGK
light: ELVMTQSPATLSVSPGERATLSCRASEDIENYLAWYQQKPGQPPRLLIYRASTLSSGVPARFSGSGSGTEFTLTISSLQSEDFAVYYCQQGYRNSNVDNPFGGGTKVEIKRTVAAPSVFIFPPSDEQLKSGTASVVCLLNNFYPREAKVQWKVDNALQSGNSQESVTEQDSKDSTYSLSSTLTLSKADYEKHKVYACEVTHQGLSSPVTKSFNRGECGGGGSGGGGSGGGGSDIQMTQSPSSLSASVGDRVTITCQASESVDRNNRLAWFQQKPGKPPKLLIYTTSTLASGVPSRFSGSGSGTDFTLTISSLQPEDVATYYCAGYRGAHTDGDAFGCGTKVEIKGGGGSGGGGSGGGGSGGGGSEQQLVESGGGLVKPGGSLRLSCAASGFSFSRSSYMCWVRQAPGKCLEWIGCLSVGDGHTYYASWAKGRFTISKDSAKNSVYLQMNSLRAEDTAVYFCARAPSYSGDGGHGYDLWGPGTLVTVSS
In the case of B6, the “IC50 (nM), Ramos cell killing by M2 macrophages, Donor 100” value [2] is reported as 0.001 nM, the “IC50 (nM), Ramos cell killing by M2 macrophages, Donor 233” value [2] is reported as 0.003 nM and the “IC50 (nM), killing of endogenous B cells by PBMCs, Donor 234” value [3] is reported as 0.0154 nM. For the same binder, the “EC50 (read off the curve)” value [5] was roughly 900 pM, the “IC50 (nM), Ramos cell killing by M0 macrophages, Donor 100” value [6] was 0.002 nM and the “IC50 (nM), Ramos cell killing by M0 macrophages, Donor 159” value [6] was 0.001 nM. The “IC50 (nM), Ramos cell killing by M0 macrophages, Donor 161” value [6] was 0.0013 nM, the “IC50 (nM), Ramos cell killing by M0 macrophages, Donor 233” value [6] was 0.002 nM and the “IC50 (nM), Ramos cell killing by PBMCs (test 2), Donor 234” value [8] was 0.0675 nM.
